Key:
[1] = test system: wild-type and variant SNAP-GIPR; experiment: Single-concentration GIP cAMP response by HTRF in INS-1 cells; type: cell-based, human; conditions: Fig S3E, mean
Experimental: All variants were tested in parallel on each occasion to control for transfection efficiency differences between experiments.

[2] = test system: wild-type and variant SNAP-GIPR; experiment: Constitutive and agonist-mediated internalization, reversible SNAP-tag labelling, INS-1 cells; type: cell-based, human; set-up: key to Internalisation, GIP-only / Internalisation, Vehicle / Internalisation, +GIP: % internalization: residual fluorescence after Mesna vs pre-Mesna; conditions: Mean
Summary of the method: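 Surface SNAP-GIPR signal removable by Mesna was tracked by imaging before and 10 min after treatment in pH 8.6 TNE buffer. Internalization is the Mesna-resistant share of specific fluorescence.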

[3] = test system: wild-type and variant SNAP-GIPR in Gipr-/- mouse islets; experiment: Glucagon secretion from Gipr-/- mouse islets transduced with GIPR adenoviruses; type: cell-based; conditions: Fig S6C, Gipr-/- mouse islets
Experimental: (§1) Isolated islets used for insulin secretion assays were treated in 1.5-ml microcentrifuge tubes. Eight-ten islets were used per well with two-three technical replicates per condition. […] At the end of the treatment, supernatants containing the secreted insulin or glucagon were collected, centrifuged at 1000g for 5 min, and transferred to fresh tubes. […] The lysates were sonicated 3× for 10 s in a water bath and centrifuged at 10,000g for 10 min, and the supernatants were collected. The samples were stored at −20°C until the insulin or glucagon concentrations were determined using an Insulin Ultra-Sensitive HTRF Assay kit (62IN2PEG, Revvity) or an HTRF Glucagon Detection Kit (62CGLPEG, Revvity) respectively, according to the manufacturer’s instructions. GraphPad Prism 9.0 was used for the generation of the standard curve and sample concentration extrapolation. The total insulin or glucagon content was calculated by adding the secreted insulin to the insulin content of the lysates, and secretion was reported as the percentage release of total. The percent secretion of islets treated with agonist was normalized to that of islets treated with vehicle and reported as a fold change.

[4] = test system: wild-type and variant SNAP-GIPR in Gipr-/- mouse islets; experiment: Insulin secretion from Gipr-/- mouse islets transduced with GIPR adenoviruses; type: cell-based; conditions: Fig 6D, Gipr-/- mouse islets
Experimental: as §1

[5] = test system: wild-type and variant SNAP-GIPR in wild-type mouse islets; experiment: Insulin secretion from wild-type mouse islets transduced with GIPR adenoviruses; type: cell-based; conditions: Fig 6F
Experimental: as §1, with “The samples were stored at −20°C until the insulin or glucagon concentrations were determined using an Insulin Ultra-Sensitive HTRF Assay kit (62IN2PEG, Revvity) or an HTRF Glucagon Detection Kit (62CGLPEG, Revvity) respectively, according to the manufacturer’s instructions.” left out

[6] = test system: wild-type and variant SNAP-GIPR; experiment: Surface SNAP-GIPR expression (SNAP-tag labelling) in AD293 cells; type: cell-based, human; conditions: for AD293 Surface: Fig S3E, mean; for Surface SNAP-GIPR expression: sheet Fig 1C;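 as to all read-outs here: scaled to the experimental average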
Summary of the method: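 Surface GIPR is quantified from wide-field images after labelling intact transfected cells with a membrane-impermeant SNAP probe at 500 nM for 10 min at room temperature. Specific signal, corrected for nontransfected cells, is normalized to the experiment-wide average or to wild-type.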

B1: E354Q (protein)
chain: RAETGSKGQTAGELYQRWERYRRECQETLAAAEPPSGLACNGSFDMYVCWDYAAPNATARASCPWYLPWHHHVAAGFVLRQCGSDGQWGLWRDHTQCENPEKNEAFLDQRLILERLQVMYTVGYSLSLATLLLALLILSLFRRLHCTRNYIHINLFTSFMLRAAAILSRDRLLPRPGPYLGDQALALWNQALAACRTAQIVTQYCVGANYTWLLVEGVYLHSLLVLVGGSEEGHFRYYLLLGWGAPALFVIPWVIVRYLYENTQCWERNEVKAIWWIIRTPILMTILINFLIFIRILGILLSKLRTRQMRCRDYRLRLARSTLTLVPLLGVHQVVFAPVTEEQARGALRFAKLGFEIFLSSFQGFLVSVLYCFINKEVQSEIRRGWHHCRLRRSLGEEQRQLPERAFRALPSGSGPGEVPTSRGLSSGTLPGPGNEASRELESYC
[1]
  INS-1 cAMP (100 nM): 1.46
[2]; Fig 4G, GIP 100 nM
  +GIP internalisation (100 nM): 0.4403
  GIP-specific internalisation (100 nM): 0.1518
[2]; Fig 4G
  Constitutive internalisation (100 nM): 0.2885
[2]; Fig S4C, INS-1
  Internalisation, +GIP: 61.4683
  Internalisation, GIP-only: 21.0467
  Internalisation, Vehicle: 40.4217
[3]; replicate 1
  Glucagon secretion, ratio G0.5 + GIP / G0.5: 0.6783
[3]; replicate 2
  Glucagon secretion, ratio G0.5 + GIP / G0.5: 1.215
[3]; replicate 4
  Glucagon secretion, ratio G0.5 + GIP / G0.5: 1.495
[4]; replicate 1
  Insulin secretion, ratio G11 + GIP / G11: 1.276
[4]; replicate 2
  Insulin secretion, ratio G11 + GIP / G11: 0.2979
[4]; replicate 3
  Insulin secretion, ratio G11 + GIP / G11: 1.231
[4]; replicate 4
  Insulin secretion, ratio G11 + GIP / G11: 1.587
[5]; replicate 1
  Insulin secretion, ratio G11 + GIP / G11: 0.7071
[5]; replicate 2
  Insulin secretion, ratio G11 + GIP / G11: 0.9219
[5]; replicate 3
  Insulin secretion, ratio G11 + GIP / G11: 0.7382
[5]; replicate 4
  Insulin secretion, ratio G11 + GIP / G11: 0.5337
[5]; replicate 5
  Insulin secretion, ratio G11 + GIP / G11: 0.4605
[6]; column repeated, paired with cAMP 100 nM
  AD293 Surface: 0.7482
[6]; paired with cAMP 100 pM
  AD293 Surface: 0.7482
[6]; replicate 1
  Surface SNAP-GIPR expression: 0.8065
[6]; replicate 2
  Surface SNAP-GIPR expression: 0.9885
[6]; replicate 3
  Surface SNAP-GIPR expression: 0.6105
[6]; replicate 4
  Surface SNAP-GIPR expression: 0.8642
[6]; replicate 5
  Surface SNAP-GIPR expression: 0.9388
[6]; replicate 6
  Surface SNAP-GIPR expression: 0.763
[6]; replicate 7
  Surface SNAP-GIPR expression: 0.751
[6]; replicate 8
  Surface SNAP-GIPR expression: 0.7772
[6]; replicate 9
  Surface SNAP-GIPR expression: 0.3807
[6]; replicate 10
  Surface SNAP-GIPR expression: 0.8583
[6]; replicate 11
  Surface SNAP-GIPR expression: 0.7525
[6]; replicate 12
  Surface SNAP-GIPR expression: 0.8043
[6]; replicate 13
  Surface SNAP-GIPR expression: 1.071
[6]; replicate 14
  Surface SNAP-GIPR expression: 0.6911
[6]; replicate 15
  Surface SNAP-GIPR expression: 0.7162
[6]; replicate 16
  Surface SNAP-GIPR expression: 0.6632
[6]; replicate 17
  Surface SNAP-GIPR expression: 0.6439
[6]; replicate 18
  Surface SNAP-GIPR expression: 0.5804
[6]; replicate 19
  Surface SNAP-GIPR expression: 0.6207
[6]; replicate 20
  Surface SNAP-GIPR expression: 0.742
[6]; replicate 21
  Surface SNAP-GIPR expression: 0.7392
[6]; replicate 22
  Surface SNAP-GIPR expression: 0.5026
[6]; replicate 23
  Surface SNAP-GIPR expression: 0.762
[6]; replicate 24
  Surface SNAP-GIPR expression: 0.7507
[6]; replicate 25
  Surface SNAP-GIPR expression: 0.8473
[6]; replicate 26
  Surface SNAP-GIPR expression: 0.7374
[6]; replicate 27
  Surface SNAP-GIPR expression: 0.7405
[6]; replicate 28
  Surface SNAP-GIPR expression: 0.7355
[6]; replicate 29
  Surface SNAP-GIPR expression: 0.6896
[6]; replicate 30
  Surface SNAP-GIPR expression: 1.162
[6]; replicate 31
  Surface SNAP-GIPR expression: 0.7254
[6]; replicate 32
  Surface SNAP-GIPR expression: 0.7792
[6]; replicate 33
  Surface SNAP-GIPR expression: 0.8108
[6]; replicate 34
  Surface SNAP-GIPR expression: 0.9519
[6]; replicate 35
  Surface SNAP-GIPR expression: 0.6078
[6]; replicate 36
  Surface SNAP-GIPR expression: 0.6218
[6]; replicate 37
  Surface SNAP-GIPR expression: 0.8918
[6]; replicate 38
  Surface SNAP-GIPR expression: 0.4883
[6]; replicate 39
  Surface SNAP-GIPR expression: 0.768
[6]; replicate 40
  Surface SNAP-GIPR expression: 0.6348
[6]; replicate 41
  Surface SNAP-GIPR expression: 0.707

— article PMC13544220, “Glycemic and bodyweight effects of GIPR coding variation reflect differences in surface expression and intrinsic functional impairment” (Science Advances, 2026)
